What was measured:
[1] = biological target: amino-terminal poly-histidine-tagged Cas4 (Bacillus halodurans type I-C), co-expressed with untagged Cas1 (Bacillus halodurans); experiment: negative-stain EM reconstruction
[2] = biological target: the molecule itself; experiment: negative-stain EM reconstruction

stoichiometry N (Cas1 per complex) [1]: 4 | stoichiometry N (Cas4 per complex) [1]: 2
B1: untagged Cas1 (Bacillus halodurans type I-C), co-expressed with His6-Cas4 (natural protein, UniProt Q9KFX9 1-343, looked up)
chain: MKKLLNTLYVTQPDTYLSLDGDNVVLLKEQEKLGRLPLHNLEAIVGFGYTGASPALMGYCAERNISITFLTKNGRFLARVVGESRGNVVLRKTQYRISENDQESTKIARNFITGKVYNSKWMLERMTREHPLRVNVEQFKATSQLLSVMMQEIRNCDSLESLRGWEGQAAINYNKVFDQMILQQKEEFAFHGRSRRPPKDNVNAMLSFAYTLLANDVAAALETVGLDAYVGFMHQDRPGRASLALDLMEELRGLYADRFVLSLINRKEMTADGFYKKENGAVLMTDEARKTFLKAWQTKKQEKITHPYLGEKMSWGLVPYVQALLLARFLRGDLDEYPPFLWK
binding result [2]: binds
